Results taken from article PMC10563445, “Extracellular microRNA 130b‐3p inhibits eCIRP‐induced inflammation” (EMBO Reports, 2019).

What was measured:
human TLR4/MD2 complex [1] = molecular target: T1, human TLR4/MD2 complex (human, UniProt O00206 24-631; Q9Y6Y9 19-160); assay: SPR; BIAcore T200; human TLR4/MD2 complex immobilised on a CM5 chip; rmCIRP (31.25-500 nM) injected alone as analyte; running buffer 1X HBS-EP; 1:1 binding model; details: both partners purified
T1 construct: Toll-like receptor 4 (TLR4), human, recombinant, in the bought TLR4/MD2 complex; Myeloid differentiation factor 2 (MD2), human, recombinant, in the bought TLR4/MD2 complex; also called TLR4 and myeloid differentiation factor 2 (MD2) complex; source: bought: R&D Systems

human TLR4/MD2 complex [2] = molecular target: T1, human TLR4/MD2 complex; assay: SPR; BIAcore T200; human TLR4/MD2 complex immobilised on a CM5 chip; rmCIRP (31.25-1,000 nM) incubated with a constant 100 nM miRNA 130b-3p mimic and injected as analyte; 1X HBS-EP; 1:1 binding model; details: both partners purified
human TLR4/MD2 complex [3] = molecular target: T1, human TLR4/MD2 complex; assay: SPR; BIAcore T200; human TLR4/MD2 complex immobilised on a CM5 chip; rmCIRP (31.25-1,000 nM) incubated with a constant 50 nM miRNA 130b-3p mimic and injected as analyte; 1X HBS-EP; 1:1 binding model; details: both partners purified
[4] = molecular target: T2, rmCIRP (recombinant murine cold-inducible RNA-binding protein) (mouse, UniProt P60824 1-172); assay: SPR; RNA immobilized on SA chip; SPR (BIAcore T200), 1X HBS-EP running buffer; rmCIRP 7.8-500 nM over RNA; pH and temperature not stated; details: single strand
T2 sequence: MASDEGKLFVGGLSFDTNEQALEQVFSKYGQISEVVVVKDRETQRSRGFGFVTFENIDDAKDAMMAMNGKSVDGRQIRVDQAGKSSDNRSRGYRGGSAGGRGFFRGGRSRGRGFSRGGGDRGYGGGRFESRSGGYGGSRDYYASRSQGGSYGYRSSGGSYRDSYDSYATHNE

[5] = molecular target: T2, rmCIRP (recombinant murine …); assay: SPR; RNA immobilized on SA chip; text misprints 8.4 x 10^8 M; SPR (BIAcore T200), 1X HBS-EP running buffer; rmCIRP 7.8-500 nM over RNA; pH and temperature not stated; details: single strand
TLR4/MD2 complex = TLR4/MD2 complex (human, UniProt O00206;Q9Y6Y9 24-631;19-160); assay: SPR; RNA analyte 31.25-1000 nM, no rmCIRP; SPR (BIAcore T200), 1X HBS-EP running buffer; rmCIRP 7.8-500 nM over RNA; pH and temperature not stated; details: protein: commercial
Sequence of TLR4/MD2 complex (O00206 24-631, chain 1 of 2): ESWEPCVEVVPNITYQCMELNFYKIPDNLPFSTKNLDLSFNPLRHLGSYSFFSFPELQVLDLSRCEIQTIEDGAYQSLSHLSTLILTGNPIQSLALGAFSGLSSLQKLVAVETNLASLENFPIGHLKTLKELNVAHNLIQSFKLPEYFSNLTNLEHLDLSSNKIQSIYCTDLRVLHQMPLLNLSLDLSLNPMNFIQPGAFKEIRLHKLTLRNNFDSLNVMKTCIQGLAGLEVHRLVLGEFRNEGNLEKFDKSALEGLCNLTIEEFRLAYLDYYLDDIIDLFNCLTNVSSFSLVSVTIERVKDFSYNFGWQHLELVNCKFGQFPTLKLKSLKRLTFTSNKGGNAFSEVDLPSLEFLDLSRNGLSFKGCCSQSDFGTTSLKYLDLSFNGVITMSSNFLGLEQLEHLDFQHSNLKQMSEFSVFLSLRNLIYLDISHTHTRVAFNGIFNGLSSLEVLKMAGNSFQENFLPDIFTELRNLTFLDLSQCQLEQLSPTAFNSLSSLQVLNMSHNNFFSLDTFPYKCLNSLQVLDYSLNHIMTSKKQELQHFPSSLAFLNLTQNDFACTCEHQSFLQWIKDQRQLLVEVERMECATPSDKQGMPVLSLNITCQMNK
Sequence of TLR4/MD2 complex (Q9Y6Y9 19-160, chain 2 of 2): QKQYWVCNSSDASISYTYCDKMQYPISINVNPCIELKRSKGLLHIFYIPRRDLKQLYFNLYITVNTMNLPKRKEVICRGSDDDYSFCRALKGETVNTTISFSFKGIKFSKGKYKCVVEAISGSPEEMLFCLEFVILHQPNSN

T1 sequence (O00206 24-631, chain 1 of 2): as the sequence (O00206 24-631, chain 1 of 2) above
T1 sequence (Q9Y6Y9 19-160, chain 2 of 2): as the sequence (Q9Y6Y9 19-160, chain 2 of 2) above

B1: recombinant murine cold-inducible RNA-binding protein (natural protein, mouse, UniProt P60824 1-172, looked up)
chain: T2 sequence
notes: also called rmCIRP; recombinant mouse (rm) CIRP
**Q.** How did the Kd (human TLR4/MD2 complex [1]) turn out when B1 was run?
**A.** 116.5 ± 0.8 nM

**Q.** What about the “KD with 100 nM miRNA 130b-3p mimic” value (human TLR4/MD2 complex [2]) of the same binder?
**A.** 40000 nM

**Q.** What about the “KD with 50 nM miRNA 130b-3p mimic” value (human TLR4/MD2 complex [3]) of the same binder?
**A.** 420 nM

B2: miRNA 130b-3p mimic, biotinylated (ssRNA)
RNA: CAGUGCAAUGAUGAAAGGGCAU
**Q.** With B2 as the binder, how does the Kd [4] read?
**A.** 50.1 ± 3 nM

B3: miRNA 27b mimic (27b-3p), biotinylated (ssRNA)
RNA: UUCACAGUGGCUAAGUUCUGC
**Q.** For B3, which Kd [5] is on record?
**A.** 83.5 ± 3.1 nM

B4: miRNA 140 mimic (140-5p), biotinylated (ssRNA)
RNA: CAGUGGUUUUACCCUAUGGUAG
**Q.** Which Kd [4] does the source give for B4 here?
**A.** 160 ± 1.9 nM

B5: miRNA 130b-3p mimic (analyte) (ssRNA)
RNA: CAGUGCAAUGAUGAAAGGGCAU
**Q.** Does B5 bind (TLR4/MD2 complex)?
**A.** no binding
